Reference: article doi:10.1101/2023.05.24.542197

Target: Dicer (endogenous human Dicer) (human (endogenous in HeLa and HEK 293T)) (UniProt Q9UPY3)
Experiment: proximity ligation

UniProt Q9UPY3, sequence (Q9UPY3 whole entry): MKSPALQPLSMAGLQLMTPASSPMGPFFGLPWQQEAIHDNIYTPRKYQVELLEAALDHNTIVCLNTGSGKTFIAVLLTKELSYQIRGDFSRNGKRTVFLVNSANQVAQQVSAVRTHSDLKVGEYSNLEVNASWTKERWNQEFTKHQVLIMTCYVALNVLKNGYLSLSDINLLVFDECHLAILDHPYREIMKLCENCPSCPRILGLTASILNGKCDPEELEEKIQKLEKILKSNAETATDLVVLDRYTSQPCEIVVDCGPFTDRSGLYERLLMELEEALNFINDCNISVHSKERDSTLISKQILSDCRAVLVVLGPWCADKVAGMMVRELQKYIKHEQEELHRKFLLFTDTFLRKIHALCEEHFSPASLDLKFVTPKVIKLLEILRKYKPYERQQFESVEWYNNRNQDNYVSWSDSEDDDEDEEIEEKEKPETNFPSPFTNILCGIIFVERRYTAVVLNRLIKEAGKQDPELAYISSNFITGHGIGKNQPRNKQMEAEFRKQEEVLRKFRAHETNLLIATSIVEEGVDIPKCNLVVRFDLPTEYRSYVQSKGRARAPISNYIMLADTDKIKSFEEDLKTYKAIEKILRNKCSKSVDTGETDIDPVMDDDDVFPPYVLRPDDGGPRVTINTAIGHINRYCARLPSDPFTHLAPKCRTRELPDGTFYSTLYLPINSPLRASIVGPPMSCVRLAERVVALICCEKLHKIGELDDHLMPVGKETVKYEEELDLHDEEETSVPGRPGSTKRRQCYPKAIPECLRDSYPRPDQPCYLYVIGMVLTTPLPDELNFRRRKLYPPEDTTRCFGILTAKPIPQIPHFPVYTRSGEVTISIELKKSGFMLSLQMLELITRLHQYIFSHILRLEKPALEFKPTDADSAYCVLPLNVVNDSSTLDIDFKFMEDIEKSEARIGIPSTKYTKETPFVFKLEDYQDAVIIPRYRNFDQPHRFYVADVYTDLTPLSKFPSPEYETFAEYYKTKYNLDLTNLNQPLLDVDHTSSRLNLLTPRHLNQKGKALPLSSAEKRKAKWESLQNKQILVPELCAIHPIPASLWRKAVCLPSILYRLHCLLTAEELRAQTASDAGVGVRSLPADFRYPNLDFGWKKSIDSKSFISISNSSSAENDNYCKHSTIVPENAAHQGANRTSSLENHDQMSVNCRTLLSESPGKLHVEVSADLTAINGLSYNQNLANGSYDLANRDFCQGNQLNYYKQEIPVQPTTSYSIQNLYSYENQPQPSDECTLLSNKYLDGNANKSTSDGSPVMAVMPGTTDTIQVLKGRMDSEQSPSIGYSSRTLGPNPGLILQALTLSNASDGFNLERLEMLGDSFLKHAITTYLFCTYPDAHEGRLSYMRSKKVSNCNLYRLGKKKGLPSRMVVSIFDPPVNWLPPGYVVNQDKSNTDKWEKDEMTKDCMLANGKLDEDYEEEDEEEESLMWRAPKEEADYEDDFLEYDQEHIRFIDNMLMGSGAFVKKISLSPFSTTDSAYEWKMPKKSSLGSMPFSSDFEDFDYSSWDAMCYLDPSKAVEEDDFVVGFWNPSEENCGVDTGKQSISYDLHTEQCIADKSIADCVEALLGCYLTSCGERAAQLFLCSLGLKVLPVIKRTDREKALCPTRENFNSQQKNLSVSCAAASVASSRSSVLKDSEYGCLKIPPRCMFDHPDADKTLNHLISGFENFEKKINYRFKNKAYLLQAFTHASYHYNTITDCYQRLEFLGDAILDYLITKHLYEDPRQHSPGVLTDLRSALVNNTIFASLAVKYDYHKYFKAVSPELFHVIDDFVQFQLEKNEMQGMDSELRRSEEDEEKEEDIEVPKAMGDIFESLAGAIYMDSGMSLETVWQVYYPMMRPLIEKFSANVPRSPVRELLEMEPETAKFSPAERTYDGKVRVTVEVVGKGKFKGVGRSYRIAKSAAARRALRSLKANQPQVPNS

Substance: Flag-Gag (pCI-Neo-Flag-Gag) (natural protein)
- PLA proximity events in a cell (highest) (proximity events per cell): < 36
